Source: publication PMC8795421 (2022)

B1: DAF-Fc (decay accelerating factor, DAF/CD55, fused to the human IgG1 Fc region) (Fc fusion)
chain: DCGLPPDVPNAQPALEGRTSFPEDTVITYKCEESFVKIPGEKDSVICLKGSQWSDIEEFCNRSCEVPTRLNSASLKQPYITQNYFPVGTVVEYECRPGYRREPSLSPKLTCLQNLKWSTAVEFCKKKSCPNPGEIRNGQIDVPGGILFGATISFSCNTGYKLFGSTSSFCLISGSSVQWSDPLPECREIYCPAPPQIDNGIIQGERDHYGYRQSVTYACNKGFTMIGEHSIYCTVNNDEGEWSGPPPECRGKSLTSKVPPTVQKPTTVNVPTTEVSPTSQKTTTKTTTPNAQATRSTPVSRTTKHFHETTPNKGSGTTS
B2: Biotinylated recombinant CD97, N-terminal extracellular domain (residues 24-540) with Fc domain and avidin tag (Fc fusion)
chain: RGCARWCPQNSSCVNATACRCNPGFSSFSEIITTPTETCDDINECATPSKVSCGKFSDCWNTEGSYDCVCSPGYEPVSGAKTFKNESENTCQDVDECQQNPRLCKSYGTCVNTLGSYTCQCLPGFKFIPEDPKVCTDVNECTSGQNPCHSSTHCLNNVGSYQCRCRPGWQPIPGSPNGPNNTVCEDVDECSSGQHQCDSSTVCFNTVGSYSCRCRPGWKPRHGIPNNQKDTVCEDMTFSTWTPPPGVHSQTLSRFFDKVQDLGRDSKTSSAEVTIQNVIKLVDELMEAPGDVEALAPPVRHLIATQLLSNLEDIMRILAKSLPKGPFTYISPSNTELTLMIQERGDKNVTMGQSSARMKLNWAVAAGAEDPGPAVAGILSIQNMTTLLANASLNLHSKKQAELEEIYESSIRGVQLRRLSAVNSIFLSHNNTKELNSPILFAFSHLESSDGEAGRDPPAKDVMPGPRQELLCAFWKSDSDRGGHWATEGCQVLGSKNGSTTCQCSHLSSFAILMAHY
modifications: biotin (in situ biotinylation by BirA-ER during expression)

Tests used:
Experiment in all cases: BLI
[1] = target: B2
[2] = target: CD97 Ab with same binding site as DAF-Fc
[3] = target: CD97 Ab with known Kd

Kd [1] [nM] | Kd [2] [nM] | Kd [3] [nM] | Binder
340 | – | – | B1
– | 4.5 | 7700 | B2
